In patent US20230174629A1:

Key:
[1] = target: MPER-Fluc-Bpe fusion protein (Bordetella pertussis (Fluc-Bpe); HIV-1 (gp41 MPER epitope)); assay: gel filtration chromatography, complex against fusion protein alone
[2] = target: MPER-GlpF fusion protein (E. coli (GlpF); HIV-1 (gp41 MPER epitope)); assay: size exclusion chromatography, complex against GlpF alone
[3] = target: MPER-AdiC fusion protein (Salmonella enterica (AdiC); HIV-1 (gp41 MPER epitope)) (UniProt P60065)
[4] = target: MPER-AdiC fusion protein (Salmonella enterica (AdiC); HIV-1 (gp41 MPER epitope)) (UniProt P60065); assay: gel filtration chromatography, complex against AdiC alone
[5] = target: MPER-Fluc-Bpe fusion protein (Bordetella pertussis (Fluc-Bpe); HIV-1 (gp41 MPER epitope)); assay: negative stain EM 2-D class averages, 1 dimer:0.3 Fab molar ratio

Substance | shift in the retention time [1] | elution volume shift [2] | stoichiometry (Fab per AdiC dimer) (Fab per AdiC dimer) [3] | elution volume shift [4] | percent of total particles in the doubly-occupied class [5]
10E8v4 Fab fragment | 2 mL | 1 mL | 1 | 0.5 mL | 
VRC42 Fab fragment |  |  |  |  | 2.5%
